According to paper PMC5653676:

Target: IL-13 receptor (IL-4Rα and IL-13Rα1) (UniProt P24394)
UniProt P24394, sequence (P24394 26-825, chain 1 of 2): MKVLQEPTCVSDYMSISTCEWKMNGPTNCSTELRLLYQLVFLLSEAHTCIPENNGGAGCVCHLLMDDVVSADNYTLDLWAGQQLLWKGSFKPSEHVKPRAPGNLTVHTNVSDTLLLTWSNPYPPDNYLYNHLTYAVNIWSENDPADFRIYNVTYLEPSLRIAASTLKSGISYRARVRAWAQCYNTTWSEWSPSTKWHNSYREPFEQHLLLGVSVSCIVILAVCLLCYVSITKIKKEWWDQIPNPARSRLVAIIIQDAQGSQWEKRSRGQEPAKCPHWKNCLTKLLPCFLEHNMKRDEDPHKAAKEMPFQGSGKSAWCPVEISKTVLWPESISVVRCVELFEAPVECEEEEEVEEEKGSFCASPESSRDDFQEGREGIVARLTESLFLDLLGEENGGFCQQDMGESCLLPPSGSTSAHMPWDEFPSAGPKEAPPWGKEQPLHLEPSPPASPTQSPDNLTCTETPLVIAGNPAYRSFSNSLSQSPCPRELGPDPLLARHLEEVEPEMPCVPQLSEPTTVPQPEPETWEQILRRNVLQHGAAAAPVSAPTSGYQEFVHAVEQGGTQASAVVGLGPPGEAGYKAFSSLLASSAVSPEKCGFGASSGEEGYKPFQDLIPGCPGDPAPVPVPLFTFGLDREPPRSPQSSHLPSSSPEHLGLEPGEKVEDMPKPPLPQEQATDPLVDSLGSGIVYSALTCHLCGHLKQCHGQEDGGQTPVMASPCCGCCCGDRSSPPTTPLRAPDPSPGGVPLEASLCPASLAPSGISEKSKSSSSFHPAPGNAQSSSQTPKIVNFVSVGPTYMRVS
UniProt P24394, sequence (P78552 22-427, chain 2 of 2, further chain): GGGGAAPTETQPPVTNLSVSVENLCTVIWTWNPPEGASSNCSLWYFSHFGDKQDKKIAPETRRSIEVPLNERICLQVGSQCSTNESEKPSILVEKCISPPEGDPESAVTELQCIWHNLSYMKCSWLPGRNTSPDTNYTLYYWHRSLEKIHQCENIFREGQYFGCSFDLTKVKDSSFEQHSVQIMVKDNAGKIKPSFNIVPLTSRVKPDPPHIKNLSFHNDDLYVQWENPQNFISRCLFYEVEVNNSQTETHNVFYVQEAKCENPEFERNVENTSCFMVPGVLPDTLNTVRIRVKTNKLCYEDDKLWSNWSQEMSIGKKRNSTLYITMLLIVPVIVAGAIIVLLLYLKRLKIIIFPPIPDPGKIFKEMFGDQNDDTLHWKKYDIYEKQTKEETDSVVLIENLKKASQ

Substance “human recombinant interleukin 13 (from UniProt P35225 25-146) (ligand)” has an SEAP reporter (P STAT6/cEBP-SEAP) in HEK-293 cells co-transfected with IL-13Rα1, IL-4Rα and STAT6, 48 h with different physiological IL-13 concentrations; fold induction of 33 fold.
